From publication PMC5972919, “A strategy for L-isoleucine dioxygenase screening and 4-hydroxyisoleucine production by resting cells” (Bioengineered, 2017)

Substrate: CC[C@H](C)[C@H](N)C(=O)O
Assay: HPLC of 4-hydroxyisoleucine after precolumn derivatization; Michaelis-Menten fit
Format: biochemical, Bacillus thuringiensis
Conditions: apparent, L-Ile 0.02 to 5 mM, 10 mM alpha-ketoglutarate, 5 mM FeSO4, 10 mM ascorbic acid, 100 mM Tris-HCl pH 7.0, 30 °C
Source text: HPLC of 4-hydroxyisoleucine after precolumn derivatization; Michaelis-Menten fit on IDO (L-isoleucine dioxygenase)

B1: IDO (L-isoleucine dioxygenase) (Bacillus thuringiensis) (protein)
chain: MKMSGFSIEEKVHEFESKGFLEISNEIFLQEEENHRLLTQAQLDYYNLEDDAYGECRAGSYSRYIKYVDSPDYILDNSNDYFQSKEYNYDDGGKVRQFHSINDSFLYNPLIQNIVRFDTEFAFKTNIIDTSKDLIIGLHQVRYKATKERPSFSSPIWLHKDDEPVVFLHLMNLSNTAIGGDNLIANSPREINQFISLKEPLETLVFGQKVFHAVTPLGTECSTEAFRDILLVTFSYKETK
notes: motif His159-X-Asp161-X50-His212
Km: 200 µM | Vmax: 2.18 µmol/min/mg | kcat: 0.0727 s⁻¹ | kcat/Km: 363 M⁻¹ s⁻¹
